Experimental findings from paper PMC3107778 are described below.

Test [1] deals with YqiC of Salmonella enterica serovar Typhimurium (Salmonella enterica serovar Typhimurium ATCC 14028). The test can be described thus: cross-linking; purified YqiC with ethylene glycol bis(succinimidylsuccinate) (EGS) at 0.5, 1.0 and 5.0 mM, 30 min at room temperature in phosphate-buffered saline, stopped with 50 mM Tris-HCl pH 8.0; products on 15% SDS-PAGE, Coomassie staining.
Test [2] has the same target. The experiment in a line: SEC-MALS; static light scattering (90°) and refractive index coupled to a Superdex 75 column; eluted with PBS (methods) or 50 mM Tris-HCl, 150 mM NaCl pH 8; calibrated with BSA; single homogeneous peak.

Regarding “YqiC of Salmonella enterica serovar Typhimurium (from UniProt A0A2X4T3G4 1-98) (natural protein)”, the stoichiometry N in test [1] and in test [2] was 3 each time.
